One molecule from patent US20190300603A1 (CRESCENDO BIOLOGICS, published 2019) can be followed below.

The target in this experiment is T1, recombinant human IL-17A (human, UniProt Q16552 24-155).
T1 construct: also called Peprotech cat# AF-200-17
T1 sequence: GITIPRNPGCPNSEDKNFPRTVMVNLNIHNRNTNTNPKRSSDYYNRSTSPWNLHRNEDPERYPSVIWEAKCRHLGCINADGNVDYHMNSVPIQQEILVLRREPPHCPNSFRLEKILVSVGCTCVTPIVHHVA
Briefly: ELISA. A general note: In an ELISA, binding on a coated surface is turned into a signal by an enzyme label.

B1: VH domain as identified in SEQ ID NO: 1 (optimised anti-IL-17A single VH domain antibody) (VHH)
VHH: EVQLVESGGGLVQPGGSLRLSCAASGFTFSSYSMYWVRQAPGKGLEWVAEIKQDGSVQYYVSDVKGRFTISRDNAKNSLYLQMNSLRAEDTAVYYCAKGEILPLYFDYWGQGTLVTVSS
notes: Human VH single domain antibody (Humabody VH) without a light chain, from Tg/TKO mice and then optimised
Turning to B1, the binding result is given as “binds”.
